# Biological target: the molecule itself
# Test: SEC
protein,measurement,value
"LexAPaS125A, full-length P. aeruginosa LexA carrying the S125A mutation in the catalytic dyad (natural protein) MQKLTPRQAEILSFIKRCLEDHGFPPTRAEIAQELGFKSPNAAEEHLKALARKGAIEMTPGASRGIRIPGFEPHAANDDEGLPVIGRVAAGAPILAEQNIEESCRINPAFFNPRADYLLRVRGMAMKDIGILDGDLLAVHVTREARNGQVVVARIGEEVTVKRFKREGSKVWLLAENPEFAPIEVDLKEQELIIEGLSVGVIRR",stoichiometry N,2
